Results from paper PMC12086574 (Molecular Biology of the Cell, 2025).

Target: the molecule itself
Assay: SEC

B1: His6-SEPT7G (domain or fragment)
chain: GFEFTLMVVGESGLGKSTLINSLFLTDLYSPEYPGPSHRIKKTVQVEQSKVLIKEGGVQLLLTIVDTPGFGDAVDNSNCWQPVIDYIDSKFEDYLNAESRVNRRQMPDNRVQCCLYFIAPSGHGLKPLDIEFMKRLHEKVNIIPLIAKADTLTPEECQQFKKQIMKEIQEHKIKIYEFPETDDEEENKLVKKIKDRLPLAVVGSNTIIEVNGKRVRGRQYPWGVAEVENGEHCDFTILRNMLIRTHMQDLKDVTNNVHYENYRSRKLAAVT
stoichiometry N: 2
